Data on 24 sequences can be found in the DeepSol protein solubility set.

The nature of the data set: soluble on expression in E. coli; label from the status in PepcDB or PDB records.
In the case of “MIPHTDIVHNLAEKVVVVRLEKPVTFHNMIAPGKEVEVSLLFFIINNSSSSQTNILAQLMDFFTGNGHLEDLSKISEPEALYAYIAEATA”, the “soluble on expression in E. coli” value is given as “not soluble”.

For “MIPLLAFAAWSGTGKTTLLKKLIPALCARGIRPGLIKHTHHDMDVDKPGKDSYELRKAGAAQTIVASQQRWALMTETPDEEELDLQFLASRMDTSKLDLILVEGFKHEEIAKIVLFRDGAGHRPEELVIDRHVIAVASDVPLNLDVALLDINDVEGLADFVVEWMQKQNG”, the “soluble on expression in E. coli” value is listed as “soluble”.

As for “MIPQIQTLQRLMKATKAARHTKMVNNLDMPFLASRLFVVPHMLASTKLDIILNALAPRLFAGEKFPIEAYSQGNTEAFRPPETYVVQNNIAIIPVHGTLVRRSAWLGALSGLTSYEGLRASFREAIAQPDVNAVLLDIDSGGGEAGGIFDLVEEFQTLSKQYAKPIWAHANEFACSAAYAIACAASQIWIARTGVVGSIGVVCAHLDQSLADEKQGLKWTFVFEGDHKTHGNSHEPLSDTAQIKMQADCALLYEMFVDWVAKNRPLSADAIRDTKAETFIGIQALELGLADAQGTLAQALEALTDSISQTPTATKEGQNTWHAHNTAPKKMMMKKLSTSSTKTKRTKTRATLMKTSTKTKMRTKINRKA”, the “soluble on expression in E. coli” value was “not soluble”.

For “MIQERKNLVTFGDQLVEAGRRLGRLCVGIDPHPSLLKQWGCDDGIAGLQRFTEICVEAFSGNVALVKPQVAFYEAWGAAGYQILESAISELRQAGTLVLSDAKRGDIGSTMAGYAQAWLAEESSLSSDAVTVSPFLGYGSLSPVLEVAASTNKGVFVLAATSNPEARSLQDRIGEDGLSISQLMVDSVALSNREHKENNHYGNVGVVIGATLAHPPQLERLNGPILLPGVGAQGATPADVARLTQGVQELAFANVSRGILKAGPSASALSTAISKFVEEFTN”, the “soluble on expression in E. coli” value is recorded as “not soluble”.

As for “MIQEYQLRILPEIAASEQQLKAYLSQEKGLNQRDITALRTLKRSIDARQRTIYVNLKVRVYLNEMPKDDEYEHTIYNNVEGKPQVIVVGAGPGGLFAALRLIELGLRPVVVERGKDVRERKKDLAQISREHRVDPESNYSFGEGGAGAYSDGKLYTRSKKRGNVDKILNVFCQHGASTAILVDAHPHIGTDKLPRVIENMRNTIIECGGEVHFKTRMDALIIEQGEVKGIETNTGETFLGPVILATGHSARDVYRWLAANNVTIEAKGIAVGVRLEHPAGLIDQIQYHNRSGRGKYLPAAEYSFVTQVDGRGVYSFCMCPGGFIVPAASGPEQVVVNGMSPSNRGSRWSNSGMVVEIQPEDIINDKRLTVNNEAEETFPELAVLHFQEELERQCWLQGGRRQTAPAQRMVDFTRKKLSYDLPESSYSPGLISSPLHFWMPEFIAGRLSQGFQQFGRSSHGFLTNEAVMIGVETRTSSPVRIVRDKDTLQHITLRGLFPCGEGAGYAGGIVSAGIDGERCAEAVAQFMNPLEHHHHHH”, the “soluble on expression in E. coli” value was “soluble”.

For “MIRELFEKEGFTLDEEQERKFSIYLQELLRWNKVHNLTSIKKPEEIVRRHFIDSVSVVRCFERIGLDLRGKHFADVGSGAGFPGVPLKIYLKDIKLTLIESVSKKCSFLEYLKIKLNEDYRVLCTRAEKVEEKFDVVLARALGEFEEVKEILEKLSIGYVFVYKGSKLKEEWLKDYKLCELSLSFMPKSYILWKKV”, the “soluble on expression in E. coli” value is “soluble”.

Take “MIRFEIHGDNLTITDAIRNYIEEKVGKLERYFNNVPNAVAHVRVKTYSNSTTKIEVTIPLKDVTLRAEERHDDLYAGIDLITNKLERQVRKYKTRVNRKHRDRGDQDIFVAEVQESTTNNHADDIESENDIEIIRSKQFSLKPMDSEEAVLQMNLLGHDFFIFTDRETDGTSIVYRRKDGKYGLIETTELEHHHHHH”: the “soluble on expression in E. coli” value is given as “soluble”.

For the sequence “MIRGEYLLRELNQNILLQSCQEFVKDYLDTICSFYLGKEVWYRFTELTNTEANCLVGTKEFFDEGHPLFGYRGTRRLLACLDEFQAEAHVVTEVYQTNPNLSVIFPFVNDADQLKQAITVLRQQGFTGKVGTMIELPSAYFDLSSILETGISKIVVGMNDLTSFVFATMRNSQWHDMESPIMLDMLRDMQDKARKNKIDFAVAGYLNTSFIQKMNQLGIKCIIHYSSIPEIFDLEIDHPDHLKHIKEESKKLQRSTHDTARNVE”, the “soluble on expression in E. coli” value is on record as “soluble”.

Take “MIRISDAAQAHFAKLLANQEEGTQIRVFVINPGTPNAECGVSYCPPDAVEATDTALKFDLLTAYVDELSAPYLEDAEIDFVTDQLGSQLTLKAPNAKMRKVADDAPLMERVEYMLQSQINPQLAGHGGRVSLMEITEDGYAILQFGGGCNGCSMVDVTLKEGIEKQLLNEFPELKGVRDLTEHQRGEHSYY”: the “soluble on expression in E. coli” value was “soluble”.

With “MIRITLHTYCISELFSGDLELFASKLEETSQNQKTYSTPRSSDFRAILPTYSTPRSSDFGAILPIHSTTRLSNLSSGHSMTLLDPLVEYHFATLPDNTRPFTLPSYSTPWSSIITHHHQHHSTGHSITSSQSTQIRTQPDKLSTRKRRGEDKVFGSGLDLHRIKKPISAHYLSMGRAIRLLARLLSFYFVLYK”, the “soluble on expression in E. coli” value is “soluble”.

For “MIRLPLLPTVIKNLFKKPATNPFPKTEPVPVPEDFRGKLVYNVDKCVGCRMCVTVCPAGVFVYLPEIRKVTLWIGRCVMCKQCVDVCPTAALQMSDEFLLASYDKYDAKLIYLTPEEAEDIKKKLEEANKAKAEKQASK”, the “soluble on expression in E. coli” value is “not soluble”.

As to “MIRQTPLEKRYDKLGPHIVTALKKRYFDAYYCKTRNEALQQILDLIPQNHVVSWGGSETLKEMGVQTAVREKGFKVIDRDLAKTPEERTEIMRQALLCDTFLMSSNAISEDGQLFNIDGNGNRVAAMIFGPKNVIVVAGMNKIVKNIDDAIQRTRTVASPAVVQRFQDVNTPCYINGSCIDCTSPESICAYMVTTRISRPAKKIKVILVGENLGLLEHHHHHH”, the “soluble on expression in E. coli” value is given as “soluble”.

Consider “MIRYMIKESRMELIEENMKHLQDRLKTAKENEMSAKTVRHDFRHHNQNIATMIQKGETNEALHYIEQYNESLDAARTKEFCSHVTVNAILSSFYIKAQNDGICISIEADTQEGTNISDMDFVAILSNILENAVNGCKECGAHGKINVNIRTVSDKTVIVCSNSCKPGLVIENNMIKHRGIGIESMLTAARKYDGDISYRLENDVLTLCVILKK”, for which the “soluble on expression in E. coli” value is “not soluble”.

Take “MISAGIDPGTGSYDVVAIEDGKVVFRKNIPTEEVRASPDVIVEVIEESGAEVAAGLSGYGLPVKRFSELDEVDLLLMTLNFDSERAIGLRNIIKAVKERNVNLYTVPAVIHLPTVPPWRKMNRIDIGTADKLCSAVLAVAKLSEEEELTKLNFILAEVGEGFNAFIAVRNGRIVDGMGGTTSFPGYSSLGAMDAELAYIIGEFPKKLIFSGGVKSFASEWKVNENEVTNILSEFVLKGIRAMEVSTDADFYMLSGRFAPDVLRKLRGEGKEVRLLGGFGRGKQSAQGAAIIANAIAGGEYREIVDYMRIFEAKGTLLDYITSDIMEYVRRGLKRRGD”: the “soluble on expression in E. coli” value was “not soluble”.

In the case of “MISEGCEQCAKGGKMVLFVYGYCDQRDCFYCPLGENRKNVTQMYANERPIEDDADVIEEAKRMSALGTSITGGEPQEVLDRTCHYLELLKDEFGEDHHTHLYTGIPGGRENMRRLSEAGLDEIRFHPPLEQWGDLHGTEWEDILYIAREEGLTPAFEIPGIRAEEEFLEFLDEGAADFCNINEFEMSDGNYRRMQEEGFELKEDHMSAVEGSHDILEKMGDHEKVYFCTSVFKDAAQHRSRLKRMARNIRRPFDDVTDDGTLVYGKAWTSEARLETLGVPEEYYTVKSEHVELAWWLLEEMVEEGDVEKGEIVEQYPTYDGTVVERTPLSNGADAGRATADD”, the “soluble on expression in E. coli” value is “not soluble”.

For “MISEKPAAKRIQSGGCAIHCQDCSISQLCIPFTLNESELDQLDQIIERKKPIQKGQELFKAGDELRSLYAIRSGTIKSYTITEQGDEQITAFHLAGDLVGFDAITGDQHPSFAQALETSMVCEIPYEILDDLSGKMPKLRQQIMRLMSNEIKGDQEMILLLSKKNAEERLAAFLYNLSTRFSQRGFSPREFRLTMTRGDIGNYLGLTVETISRLLGRFQKSEILSVKGKYITILNHAELMELAGVSKESK”, the “soluble on expression in E. coli” value was “soluble”.

With “MISILHVAARVLELRPSCDKMKLYKLCYFSQGWHLAWTGRPLFNEELQAWKYGAVSPTLRQASGLRADDDRLVTQIWSGDSSQLIDYERSVVDTVVSFYGDLESFHLSDLSHGFAWSTVRGNLPPDASCSDVIPHSLIRREFVENAWGEAPTPNAPERLPSMALDALEQAADDVAAENAETLRLLAFI”, the “soluble on expression in E. coli” value is recorded as “not soluble”.

Take “MISNIFKISAALLLLTIVSEAKPCFGRCGGRPPPPCGLPPFLEDLPSDVQTKITEIWKDYKEGDKCYEEQGLTREIMESLPKDVRKSIHKRPPLPFLRGLPKDILAKFDAIFKDKSIPFSEKPEKIDALAQEVLTGDNLKKFQEFKEKKEKEMQEYKDKESKLSAAAKVANEKLEALGKQKFAILEELDENVKDELFDLWKSRPHGPPRHH”: the “soluble on expression in E. coli” value is “not soluble”.

As to “MISNKNIFNRFQQWMDTFLMLELQWFLIYANVANQMIVYGCCQMSKKTSNETPKVFLMLGHFFVSLKYPGATETKNWSKKLPFHYFHKYV”, the “soluble on expression in E. coli” value is on record as “not soluble”.

Regarding “MISRPESSLSGLESSQEVQKKTWNPRNYSARLTENIGLPLILLEKHNPWPAYVAYISPAVTRITEKGWARDLEYIYAAEKNGKPVKRSKHSAVLLKRRKPSKPSELMLKETLSETMLPTWECSTIYVSPTFVPEPAQLQMDVREGPTSNYNKIIFSKRPAMRKLPFGLLQASKEMHTKD”, the “soluble on expression in E. coli” value is on record as “soluble”.

Regarding “MISVTLSKIADVLGAEHRGADLTLDTVITDTRKVTPGCLFVALKGERFDAHDFADKAKANGAGALLVSRPLDIDLPQVIVKDTRQAFGQLAAWVRMQVPARVVALTGSSGKTSVKEMTAAILSQCGNTLYTAGNFNNDIGVPITLLRLNHDYDYAVIELGANHQGEIAWTVSLTRPEAALVNNLAAAHLEGFGSLAGVAKAKGEIYTGLPENGIAIMNADNNDWLNWQSIIGDRLVWRFSPNAANSDFTAANIHVTSHGTEFTLQTPMGSIDVLLPLPGRHNIANALAAAALSMAVGATLTAIKAGLAALKAVPGRLFPIQLSENQLVLDDAYNANVGSMTAAVQVLSEMPGYRVLVVGDMAELGAESEACHLQVGEAAKAAGIDRVLSTGKLSQAISHASGVGEHFADKAALIARLHALLQEQPMMTILVKGSRSAAMEDVVHALQEKGSC”, the “soluble on expression in E. coli” value is “not soluble”.

With “MISVVGAGGKTSLLFWLAELLQASGRRVLITTTTHMFMPTSHWPVVFCRDPAMLPHASLTSPISFCFHSWKANQGKVQGFTPEAIDALVQRPECDVILIEADGSRGMPLKAPDEHEPCIPKSSCCVIAVMGGHTLGAKVSTENVHRWSQFADITGLTPDATLQLSDLVALVRHPQGAFKNVPQGCRRVWFINRFSQCENAIAQSELLQPLQQHDVEAIWLGDIQEHPAIARRFVNLEHHHHHH”, the “soluble on expression in E. coli” value is reported as “not soluble”.

Take “MITIITQDQLKTSPSVREDGRAFDELRPLKIEAGILERADGSSYLEFGGNKILVAVYGPREAQIRKLQRPDRAVIRCRYNMAPFSVEERKRPGPDRRSVEISKITAEALRPALILEKFPRSVIDVFIEVLEAEGGTRCAGITAASVALADAGIPMRDMVVACAAGKVGDQVVLDLSEEEDKEGQADVPVAILPRTREITLLQSDGNLTPEEFERALDLAVEGCLRIHEVQKEALRKRYGE”: the “soluble on expression in E. coli” value is on record as “soluble”.

For the sequence “MITISNEDNMILMSRYPDKYFDLAIVDPPYGILNKTKRGGDYKFNMNEYSQWDIKPDQTYFNELFRVSKNQIIWGGNYFGELWLRSEYNKGFIIWDKNQPETLNNFSMAEMAWSSFDRPSKIFRFSVRKNRNKTHPTQKPVELYQWLLKMYAKQGDKILDTHLGSGTLAIACCIAQFDLTACEINSDYYQQSIEKIKNNLPEARISFGHPGYCIIE”, the “soluble on expression in E. coli” value is given as “not soluble”.
